{"source": "patent US20110126299A1", "about": "(published 2011)", "binders": {"B1": {"name": "Id-specific αβ TCR specific for the Id(λ2^315)-peptide (amino acids 91 to 101) presented on I-E^d (TCR, V domains shown)", "V domain 1": "QQKVQQSPESLIVPEGAMTSLNCTFSDSASQYFAWYRQQSGKAPKALMSIFSNGEKEEGRFTIHLNKASLHFSLHIRDSQPSDSALYLCAVRGPNTGNYKYVFGAGTRLKVIA", "V domain 2": "EAAVTQSPRNKVAVTGGKVTLSCNQTNNHNNMYWYRQDTGHGLRLIHYSYGAGSTEKGDIPDGYKASRPSQENFSLILELATPSQTSVYFCASGDAGQGHSDYTFGSGTRLLVI"}}, "molecular_target": "Id(λ2^315)-peptide (amino acids 91 to 101) presented on I-E^d (mouse, UniProt P01904 26-216; P01915 32-225)", "sequence (P01904 26-216, chain 1 of 2)": "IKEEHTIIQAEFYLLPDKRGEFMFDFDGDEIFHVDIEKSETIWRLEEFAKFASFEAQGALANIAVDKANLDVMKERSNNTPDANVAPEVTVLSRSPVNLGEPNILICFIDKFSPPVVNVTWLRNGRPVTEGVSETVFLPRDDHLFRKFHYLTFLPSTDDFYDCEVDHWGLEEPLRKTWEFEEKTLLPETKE", "sequence (P01915 32-225, chain 2 of 2)": "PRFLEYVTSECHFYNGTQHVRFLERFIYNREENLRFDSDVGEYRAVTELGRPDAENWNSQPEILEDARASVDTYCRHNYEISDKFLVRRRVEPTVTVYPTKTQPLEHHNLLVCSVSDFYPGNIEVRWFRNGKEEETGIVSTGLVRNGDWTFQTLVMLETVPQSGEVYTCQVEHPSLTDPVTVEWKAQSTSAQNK", "test": "cell-based or functional assay", "data": [{"binder": "B1", "values": [{"measurement": "light emissions (NF-κB-luciferase bioluminescence in vivo, 24 hours after transfer of Id^+ splenocytes into RAG2^-/^- mice carrying Id-specific Luc^+ T cells)", "value": 4, "unit": "fold"}]}]}
